Test results published in PMC3759449.

Assays:
[1] = biological target: NrCAM, rat (pcDNA3 plasmid) (rat) (UniProt P97686)
[2] = biological target: NrCAM, rat, tyrosine-phosphorylated in the FIGQY motif by co-expressed EphB2 (rat) (UniProt P97686)

## ankyrinG-EGFP fusion protein (from UniProt O70511 1-2622) (natural protein)
[1]
  percent of cells with ankyrinG-EGFP recruited to the plasma membrane, HEK293 cells co-expressing ankyrin/NrCAM/EphB2 KD (kinase dead mutant K662R): 84%
[2]
  percent of cells with ankyrinG-EGFP recruited to the plasma membrane, HEK293 cells co-expressing ankyrin/NrCAM/EphB2: 7%
